Experimental data published in patent publication US7456001B2, “Lipoxygenase” (Novozymes A/S, priority 2000, dated 2008).

Columns and labels:
[1] = test system: CCCCC/C=C\C/C=C\C/C=C\C/C=C\CCCC(=O)O; assay: purified protein, by the assay type; conditions: other: lipoxygenase produced as in Example 4, standard assay, 25° C., pH 7.0
Method: (§1) The lipoxygenase activity was determined spectrophotometrically at 25° C. by monitoring the formation of hydroperoxides. […] The enzyme was typically diluted sufficiently to ensure a turn-over of maximally 10% of the added substrate within the first minute. The absorbance at 234 nm was followed and the rate was estimated from the linear part of the curve. One unit causes an increase in absorbance at 234 nm of 0.001/min.
(§2) The substrate specificity of the lipoxygenase was studied using the standard assays condition with a number of different compounds as substrate. All substrates were produced as dispersions with 0.2%(v/v) Tween20. The amount of compound added to make up these stock solutions was determined by mass, since viscosity made accurate measurement of volume impossible. The limiting rate constant and the specificity constant were determined by varying the amount of substrate added in the assays. The resulting rates were plotted against the concentration of substrate used. Finally, the plots were fitted by non-linear least squares regression to the theoretical hyperbolic curve of the Michaelis-Menten equation. The cis-trans-conjugated hydro(pero)xy fatty acids were assumed to have a molecular extinction coefficient of 23,000 M^−1 cm^−1.
(§3) The activity of lipoxygenase produced as in Example 4 was tested on various substrates as described above. The results are expressed as kcat (or Vmax), KM and kcat/KM according to the Michaelis-Menten equation:

[2] = test system: CCCCC/C=C\C/C=C\CCCCCCCC(=O)OC; assay: purified protein, by the assay type; conditions: other: lipoxygenase produced as in Example 4, standard assay, 25° C., pH 7.0
Method: as §1, §2, §3

[3] = test system: CCCCC/C=C\C/C=C\CCCCCCCCO; assay: purified protein, by the assay type; conditions: other: lipoxygenase produced as in Example 4, standard assay, 25° C., pH 7.0
Method: as §1, §2, §3

[4] = molecular target: lipoxygenase (Gaeumannomyces tritici, UniProt Q8X150); assay: Determination of substrate specificity (Michaelis-Menten kinetics, hydroperoxide formation at 234 nm); conditions: lipoxygenase produced as in Example 4, standard assay, 25° C., pH 7.0
lipoxygenase, sequence (Q8X150 17-618): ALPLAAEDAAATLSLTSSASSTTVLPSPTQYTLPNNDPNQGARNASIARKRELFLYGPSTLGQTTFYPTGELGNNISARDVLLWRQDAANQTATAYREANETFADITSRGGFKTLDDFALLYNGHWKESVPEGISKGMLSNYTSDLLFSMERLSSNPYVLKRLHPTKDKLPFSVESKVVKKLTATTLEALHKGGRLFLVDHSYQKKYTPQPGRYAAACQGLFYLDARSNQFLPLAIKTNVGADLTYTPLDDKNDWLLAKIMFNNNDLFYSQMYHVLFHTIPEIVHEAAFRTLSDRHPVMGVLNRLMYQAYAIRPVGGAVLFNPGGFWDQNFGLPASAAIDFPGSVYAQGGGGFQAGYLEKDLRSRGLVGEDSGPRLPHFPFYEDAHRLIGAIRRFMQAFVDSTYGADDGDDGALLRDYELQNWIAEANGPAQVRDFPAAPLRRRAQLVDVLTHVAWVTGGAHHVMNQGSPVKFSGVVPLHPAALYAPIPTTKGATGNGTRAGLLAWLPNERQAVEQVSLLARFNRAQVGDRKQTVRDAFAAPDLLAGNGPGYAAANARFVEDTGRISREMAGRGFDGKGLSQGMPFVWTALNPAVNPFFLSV
Method: as §1, §2, §3

Molecule	Km [1]	Km [2]	Km [3]	kcat ([4]; kcat (or Vmax))	Km [4]
lipoxygenase (Gaeumannomyces tritici)	17.5 µM	164 µM	3.4 µM	–	–
CCCCC/C=C\C/C=C\CCCCCCCC(=O)O [Linoleic acid]	–	–	–	5.63 micro-mol/min/mg	6.8 µM
